From patent publication US6403769
Each block holds one substance with its values, some of them ahead of it.

How the values were obtained:
[1] = target: keratinocyte growth factor (KGF) (human) (UniProt P21781); experiment: 50% displacement of 125I-KGF by unlabeled KGF, fusion protein captured on Gamma Bind G (Scatchard analysis)
[2] = target: keratinocyte growth factor receptor (KGFR) (UniProt P21803); experiment: cell-based or functional assay
[3] = target: keratinocyte growth factor receptor (KGFR) (UniProt P21803); experiment: competition with 125I-KGF on 32D cells expressing KGFR
[4] = target: keratinocyte growth factor receptor (KGFR) (UniProt P21803); experiment: flow cytometry on KGFR-containing B5-589 cells and NIH 3T3 transfectants, FITC rabbit anti-mouse IgG
[5] = target: KGFR-HFc fusion protein (construct not specified); experiment: binding of 125I-aFGF to KGFR-HFc in solution, capture on Gamma Bind G
[6] = target: bovine brain aFGF (bovine) (UniProt P03968); experiment: comparison value for native KGFR; method not described
[7] = target: keratinocyte growth factor (KGF) (human) (UniProt P21781); experiment: comparison value for native KGFR on epithelial cells; method not described

Chain of KGF-HFc fusion protein (P21781 other isoform, or with tags, fused parts or gaps limits assumed): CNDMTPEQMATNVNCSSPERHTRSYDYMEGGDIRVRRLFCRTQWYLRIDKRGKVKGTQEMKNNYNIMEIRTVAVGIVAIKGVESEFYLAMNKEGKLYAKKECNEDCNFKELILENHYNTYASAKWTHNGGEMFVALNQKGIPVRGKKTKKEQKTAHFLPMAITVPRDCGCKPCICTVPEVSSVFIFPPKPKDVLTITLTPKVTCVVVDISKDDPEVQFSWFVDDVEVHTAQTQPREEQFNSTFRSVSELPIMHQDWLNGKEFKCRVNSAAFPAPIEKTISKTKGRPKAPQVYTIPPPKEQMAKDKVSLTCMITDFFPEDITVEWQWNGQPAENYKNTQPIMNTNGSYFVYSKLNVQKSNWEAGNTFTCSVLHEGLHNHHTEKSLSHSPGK
Chain of bovine brain aFGF (P03968 16-155 limits assumed): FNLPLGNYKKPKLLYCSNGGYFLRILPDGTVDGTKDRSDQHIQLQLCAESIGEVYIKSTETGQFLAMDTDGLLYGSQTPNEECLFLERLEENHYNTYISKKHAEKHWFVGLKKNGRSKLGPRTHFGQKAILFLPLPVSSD
Chain of keratinocyte growth factor (KGF) (human) (P21781 32-194 limits assumed): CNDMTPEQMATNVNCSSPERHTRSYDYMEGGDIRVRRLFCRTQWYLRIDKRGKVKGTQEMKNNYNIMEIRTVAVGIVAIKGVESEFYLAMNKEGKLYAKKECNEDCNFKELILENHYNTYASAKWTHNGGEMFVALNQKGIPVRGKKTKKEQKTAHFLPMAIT
Chain of bovine brain aFGF (bovine) (P03968 16-155 limits assumed): as the sequence (P03968 16-155 limits assumed) above

Kd [1]: 0.02 nM
Substance: D3-HFc fusion protein (from UniProt P21803 157-232; P01868 98-324)

half-maximal stimulation of 3H-thymidine uptake in BALB/MK cells [2]: 45 pM
stimulation of 3H-thymidine uptake in BALB/MK cells [2]: > 20 fold
Kd [3]: 1.4 nM
fold increase in fluorescent intensity compared to untransfected NIH 3T3 cells [4]: 10 to 100 fold
Substance: KGF-HFc fusion protein (from UniProt P21781 32-194; P01868 98-324)

ligand concentration at which saturable binding was achieved [5]: 40 to 50 ng/mL
Substance: bovine brain aFGF (from UniProt P03968 16-155) (ligand)

Kd [6]: 0.6 nM
Kd [7]: 0.18 nM
Substance: keratinocyte growth factor receptor (KGFR) (from UniProt P21803 22-821)
